The target in experiment [1] is T1, human HER3 expressed on cells (HEK293 HER3 O/E cells) (human, UniProt P21860 20-1342).
T1 construct: Also used here for HER3 on U2OS cells of the PathHunter kit and on cancer cell lines; also called HEK293 cells transfected with vector encoding human HER3; human HER3-expressing cells
The experiment is described as follows: flow cytometry, HEK293 cells overexpressing human HER3 (293_OE HER3), 20 ug/ml antibody, FITC anti-Fc secondary; same antibody on 293 cells: 2.78; unstained 293: 0.14.

The target of experiment [2] is T1, human HER3 expressed on cells (HEK293 …). As to the kind of experiment: flow cytometry on HEK293T HER3 O/E cells, 10 ug antibody as printed, FITC-conjugated anti-Fc secondary. The procedure:
The cells were washed with buffer (PBS with 2 mM EDTA and 0.5% BSA) and resuspended in FITC-conjugated anti-FC antibody (Invitrogen, USA) at 10 μg/ml for 20 min at 4° C. Cells were washed again and resuspended in 200 μL of FACS flow buffer (PBS with 5 mM EDTA) for flow cytometric analysis using MACSQuant 10 (Miltenyi Biotec, Germany). Unstained WT and transfected HEK293 cells were included in the analysis as negative controls. After acquisition, all raw data were analyzed using Flowlogic software. Cells were gated using forward and side scatter profile percentage of positive cells was determined for native and overexpressing cell populations.
Background: Flow cytometry measures light scatter and fluorescence of single cells or particles in a stream.

The next experiment concerns the target T2, moFcgRIV.
T2 construct: also called CD16-2; mFcγRIV
T2 chain: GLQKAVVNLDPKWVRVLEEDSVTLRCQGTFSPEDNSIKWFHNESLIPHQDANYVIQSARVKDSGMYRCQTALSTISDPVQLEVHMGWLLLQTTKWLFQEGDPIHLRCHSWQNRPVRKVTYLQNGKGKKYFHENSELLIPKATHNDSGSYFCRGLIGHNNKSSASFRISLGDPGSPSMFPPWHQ
As to the kind of experiment: Bio-Layer Interferometry (determined as described in Example 7). A general note: BLI is a label-free optical method that tracks binding on a fibre tip over time.

The target in the next experiment is T3, moFcRn (mouse, UniProt Q61559).
T3 construct: recombinant; also called mouse FcRn; gene FCGRT (so in the source)
T3 sequence (receptor, looked up): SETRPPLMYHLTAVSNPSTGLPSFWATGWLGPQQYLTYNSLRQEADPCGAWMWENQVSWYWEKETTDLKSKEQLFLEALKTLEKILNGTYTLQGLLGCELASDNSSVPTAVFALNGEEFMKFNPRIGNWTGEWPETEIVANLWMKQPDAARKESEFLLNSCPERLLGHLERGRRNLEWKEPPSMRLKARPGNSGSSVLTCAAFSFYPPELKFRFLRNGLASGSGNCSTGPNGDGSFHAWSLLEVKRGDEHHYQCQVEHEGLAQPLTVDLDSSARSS
T3 sequence (looked up): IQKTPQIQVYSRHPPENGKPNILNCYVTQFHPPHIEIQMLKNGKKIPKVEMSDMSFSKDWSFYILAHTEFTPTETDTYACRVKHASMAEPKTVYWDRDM
Described as above.

Experiment [3] deals with T4, hCD16a (human, UniProt P08637 17-208, limits assumed).
T4 construct: also called human CD16a
The experiment is described as follows: BLI; day 0 of storage at 40 °C/80% RH.

Experiment [4] has as its target T5, human HER3 polypeptide (human, UniProt P21860 20-643).
T5 construct: Recombinant antigen of the ELISAs; also called human HER3 (Sino Biological Inc.); human antigen HER3
As to the kind of experiment: BLI; day 0 of storage at 40 °C/80% RH.

A further experiment deals with T6, His-tagged human HER3 (human, UniProt P21860 20-643).
T6 construct: Antigen of the BLI experiments and of the HER2-Fc dimerisation ELISA; also called HER3 His; not shown: His tag
The experiment is described as follows: Bio-Layer Interferometry (Octet QK384); antibody on anti-Human IgG Capture tips, HIS-tagged human HER3 at 35, 69, 139 and 278 nM.

Experiment [5] addresses T5, human HER3 polypeptide. The experiment is described as follows: ELISA, plate coated with human HER3, antibody titrated, absorbance 450 nm, x axis Log([Ab]) (ug/ml). (In general: In an ELISA, binding on a coated surface is turned into a signal by an enzyme label.)
In experiment [6] the target is T4, hCD16a. As to the kind of experiment: BLI; after 7 days at 40 °C/80% RH.
For experiment [7], the target named is T5, human HER3 polypeptide. The experiment is described as follows: BLI; after 7 days at 40 °C/80% RH.
In experiment [8] the target is T7, recombinant biotinylated human HER3 protein (human, UniProt P21860 20-643, limits assumed, biotinylated, site not stated).
T7 construct: also called HER3-biotin
The experiment is described as follows: plate ELISA dimerisation assay; human EGFR-His coated, constant HER3-biotin and NRG, antibody varied; blocked partner EGFR-His. The procedure:
Plate-based ELISA dimerisation assays were performed according to standard protocols. Plate was coated with 1 μg/ml human EGFR-His. […] Plates were then washed and incubated for 1 hour with secondary anti-avidin HRP antibody. […] The absorbance was read at 450 nm.

The target of experiment [9] is T5, human HER3 polypeptide. As to the kind of experiment: ELISA; plate coated with target polypeptide, antibody serially diluted, absorbance 450 nm. The procedure:
The antibodies were analysed for their ability to bind to human HER3 polypeptide as well as human HER1 (EGFR) and human HER2 (Sino Biological Inc., China).
ELISAs were carried out according to standard protocols. Plates were coated with 0.1 μg/ml of target polypeptide in phosphate-buffered saline (PBS) for 16 h at 4° C. After blocking for 1 h with 1% BSA in Tris buffer saline (TBS) at room temperature, the anti-HER3 antibody was serially diluted with the highest concentration being 10 μg/ml, and added to the plate. Post 1 h incubation at room temperature, plates were washed three times with TBS containing 0.05% Tween 20 (TBS-T) and were then incubated with a HRP-conjugated anti-His antibody (Life Technologies, Inc., USA) for 1 h at room temperature. After washing, plates were developed with colorimetric detection substrate 3,3′,5,5′-tetramethylbenzidine (Turbo-TMB; Pierce, USA) for 10 min. The reaction was stopped with 2M H₂SO₄, and OD was measured at 450 nm.

Bounds are passed on as bounds.

B1: 10D1F.FcA (anti-HER3 clone 10D1_c89 IgG1) (antibody)
heavy: not shown
light: DIQMTQSPSSVSASVGDRVTITCKASQIVGSNVAWYQQKPGKAPEPLIYSASYLYSGVPSRFSGSGSGTDFTLTISSLQPEDFATYYCQQYSSHPLTFGQGTKLEIKRTVAAPSVFIFPPSDEQLKSGTASVVCLLNNFYPREAKVQWKVDNALQSGNSQESVTEQDSKDSTYSLSSTLTLSKADYEKHKVYACEVTHQGLSSPVTKSFNRGEC
notes: also called 10D1F.A; HMBD-001
In general, Kd refers to the concentration at which binding is half-saturated. One may read the koff as the rate constant with which the complex falls apart. Low readings indicate slow dissociation, high ones fast dissociation. For orientation: kon means a measure of how fast the partners come together. Read a high kon as fast association. The term EC50 (read off the curve) denotes the concentration needed to bring the measured effect to its halfway point. Low readings indicate an effect from little substance, high ones a need for much substance. By IC50 is commonly meant the midpoint of a concentration-inhibition curve. As a reminder, the EC50 is the concentration that produces a half-maximal response. High values mean weaker potency, low ones greater potency. With B1, the “% Parent (HER3 positive)” value in experiment [1] was found to be 44.6%; in experiment [2], 73.3%. In addition, the Kd with moFcgRIV was 1810 nM; with moFcRn, 14.6 nM; with hCD16a [3] it was 294 nM; in the experiment with human HER3 polypeptide [4] it was < 0.001 nM; in the experiment with His-tagged human HER3, 0.0726 nM; in the experiment with hCD16a [6], 302 nM. Also, the Kd with human HER3 polypeptide [7] is < 0.001 nM. The molecule also gave a koff with His-tagged human HER3 of 2.16e-05 s⁻¹. Besides, in the experiment with His-tagged human HER3, the kon was found to be 297000 M⁻¹ s⁻¹. The half-maximal effective concentration (EC50 (read off the curve)) with human HER3 polypeptide [5] is ~2 ng/mL. Besides, in experiment [8], the IC50 was 4.78 nM. In addition, the EC50 in the experiment with human HER3 polypeptide [9] was 0.0144 nM.

For the origin of these results see patent US20250122303A1 (HUMMINGBIRD BIOSCIENCE PTE, published 2025).
